Measurements as given in US20230002466A1 (ELPIS BIOPHARMACEUTICALS, published 2023).
Where a chain is given by its changes, count along the chain named. In names and notes the source's numbering stands.

B1: EP335 (ligand)
chain: APTSSSTKKTQLQLEHLLLDLQMILNGINNYKNPSLTRMLTGKFYMPKKATELKHLQCLEEELKPLEEVLNLAQSKNFHLTPRDAIDNIRVIVQELKGSETTFMCEYADETATIVEFLNRWITFCQSIISTLT
notes: not shown: His and Flag tags
B2: EP336 (ligand)
chain: B1 chain with V93I, Q94L
notes: not shown: His and Flag tags
B3: EP342 (ligand)
chain: B1 chain with S35K, R38D, G42F, Y45S, P82A, D87S, R90N, V93I
notes: not shown: His and Flag tags
B4: EP343 (ligand)
chain: B1 chain with S35K, R38D, G42F, Y45S
notes: not shown: His and Flag tags
B5: EP344 (ligand)
chain: B1 chain with S35K, R38D, G42F, Y45S, V93I, Q94L
notes: not shown: His and Flag tags
B6: EP348 (ligand)
chain: B1 chain with S35K, R38V, G42F, Y45S, V93I, Q94L
notes: not shown: His and Flag tags
B7: EP351 (ligand)
chain: B1 chain with S35K, G42A
notes: not shown: His and Flag tags
B8: EP352 (ligand)
chain: B1 chain with S35K, G42A, V93I, Q94L
notes: not shown: His and Flag tags
B9: EP242 (ligand)
chain: B1 chain with S35K, G42F, P82A, D87S
notes: EP001 back-mutation clone; not shown: His and Flag tags
B10: EP247 (ligand)
chain: B1 chain with S35K, G42F, T81R, P82A
notes: not shown: His and Flag tags
B11: EP263 (ligand)
chain: B1 chain with S35K, G42F, P82A, Q94L
notes: not shown: His and Flag tags
B12: EP001-Fc, Bivalent (EP079) (Fc fusion)
chain: APTSSSTKKTQLQLEHLLLDLQMILNGINNYKNPKLTRMLTFKFYMPKKATELKHLQCLEEELKPLEEVLNLAQSKNFHLTARDAVDNMRVIIQELKGSETTFMCEYADETATIVEFLNRWITFCQSIISTLTEPKSCDKTHTCPLCPAPEAAGGPSVFLFPPKPKDTLMISRTPEVTCVVVDVSHEDPEVKFNWYVDGVEVHNAKTKPREEQYNSTYRVVSVLTVLHQDWLNGKEYKCKVSNKALGAPIEKTISKAKGQPREPQVYTLPPSRDELTKNQVSLTCLVKGFYPSDIAVEWESNGQPENNYKATPPVLDSDGSFFLYSKLTVDKSRWQQGNVFSCSVMHEALHNHYTQKSLSLSPGK
notes: Human IgG1 with L234A, L235A, P329G
B13: EP003-Fc, Bivalent (EP082) (Fc fusion)
chain: APTSSSTKKTQLQLEHLLLDLQMILNGINNYKNPKLTRMLTFKFYMPKKATELKHLQCLEEELKPLEEVLNLAQSKNFHLGVTDSISNAIVLARELKGSETTFMCEYADETATIVEFLNRWITFCQSIISTLTEPKSCDKTHTCPLCPAPEAAGGPSVFLFPPKPKDTLMISRTPEVTCVVVDVSHEDPEVKFNWYVDGVEVHNAKTKPREEQYNSTYRVVSVLTVLHQDWLNGKEYKCKVSNKALGAPIEKTISKAKGQPREPQVYTLPPSRDELTKNQVSLTCLVKGFYPSDIAVEWESNGQPENNYKATPPVLDSDGSFFLYSKLTVDKSRWQQGNVFSCSVMHEALHNHYTQKSLSLSPGK
notes: as for B12
B14: EP004-Fc, Bivalent (EP078) (Fc fusion)
chain: B13 chain with G81C, V82P, S85T, S87E, A89I, I90T, A93I, R94Q
notes: as for B12
B15: EP083 (Fc fusion)
chain: B13 chain with R38E, G81E, V82P, T83S, S85V, A89I, I90N, A93V, R94Q
B16: EP084 (Fc fusion)
chain: B12 chain with R83E, A85V, D87T, M89I, R90T, I92L, I93V
B17: EP081 (Fc fusion)
chain: ATPTSSSTKKTQLQLEHLLLDLQMILNGINNYKNPKLTRMLTFKFYMPKKATELKHLQCLEEELKPLEEVLNLAQSKNFHLGVGDTIDNINVLVKELKGSETTFMCEYADETATIVEFLNRWITFCQSIISTLTEPKSCDKTHTCPLCPAPEAAGGPSVFLFPPKPKDTLMISRTPEVTCVVVDVSHEDPEVKFNWYVDGVEVHNAKTKPREEQYNSTYRVVSVLTVLHQDWLNGKEYKCKVSNKALGAPIEKTISKAKGQPREPQVYTLPPSRDELTKNQVSLTCLVKGFYPSDIAVEWESNGQPENNYKATPPVLDSDGSFFLYSKLTVDKSRWQQGNVFSCSVMHEALHNHYTQKSLSLSPGK

target: T1, human IL2Rβ Fc fusion protein (human, UniProt P14784 27-239); assay: ELISA, Fc-tagged receptor coated, anti-HisTag-HRP
T1 construct: also called Recombinant Fc-tagged human IL2Rβ; not shown: Fc
T1 sequence (looked up): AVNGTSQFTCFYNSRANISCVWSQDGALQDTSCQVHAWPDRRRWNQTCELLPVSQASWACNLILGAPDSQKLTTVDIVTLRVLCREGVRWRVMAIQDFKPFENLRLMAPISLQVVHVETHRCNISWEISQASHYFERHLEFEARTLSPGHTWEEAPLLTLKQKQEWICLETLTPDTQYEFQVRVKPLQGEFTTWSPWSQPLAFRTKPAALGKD
Experimental: (§1) Recombinant Fc-tagged human IL2Rα and IL2Rβ were added in 25 uL of 1×PBS to wells of 384-well plate and incubated overnight at 4° C. to coat the plates. Plates were washed three times with 0.05% Tween20/1×PBS. Plates were blocked with 100 uL of SuperBlock for 1 hr at RT and then washed 3 times with 0.05% Tween20/1×PBS. IL2 mutants were diluted in 0.05% Tween 20/1×PBS from 1000 nM to 0 nM and added to plates for 2 hrs at room temperature. Plates were then washed 6 times with 0.05% Tween20/1×PBS. Anti-HisTag-HRP was diluted 1:5000 in 0.05% Tween20/1×PBS and added to plates for 1 hr at RT. Plates were then washed 6 times with 0.05% Tween 20/1×PBS, and TMB was added to develop blue color. Reactions were stopped with 2N […] and light absorbance at 450 nm was read on a BioTek plate reader.

First: B1
Second: B2
The EC50 of the first is 2.3-fold lower: 59.1 nM for the first, 133 nM for the second. The first is the more potent here.

Compared with B3, B4 is 3-fold lower in EC50: 58.9 nM for the first, 19.7 nM for the second.

Going from B5 to B6, the EC50 rises from 50.7 nM to 124 nM (2.4-fold). The first is the more potent here.

Going from B7 to B8, the EC50 rises from 21.2 nM to 33.8 nM (1.6-fold). The first is the more potent here.

target: T2, human IL2Rα Fc fusion protein (human, UniProt P01589 22-213, limits assumed); assay: ELISA, single point, Fc-tagged human IL2Rα coated, anti-His-HRP; concentration not printed (Example 14)
T2 construct: also called Recombinant Fc-tagged human IL2Rα; not shown: Fc
T2 sequence (looked up): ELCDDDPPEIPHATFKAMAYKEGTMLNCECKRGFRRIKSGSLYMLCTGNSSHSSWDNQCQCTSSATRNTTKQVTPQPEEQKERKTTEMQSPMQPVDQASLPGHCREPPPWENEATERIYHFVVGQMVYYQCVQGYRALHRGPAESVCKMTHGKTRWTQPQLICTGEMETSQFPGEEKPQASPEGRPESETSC
Experimental: as §1

B1: no binding (tested: not printed).
B2: no binding (tested: not printed).
B3: no binding (tested: not printed).
B4: no binding (tested: not printed).
B5: no binding (tested: not printed).
B6: no binding (tested: not printed).
B7: no binding (tested: not printed).
B8: no binding (tested: not printed).

target: T1, human IL2Rβ Fc fusion protein; assay: ELISA, receptor-Fc coated, anti-Flag HRP
Experimental: (§2) Briefly, 384 well plate was immobilized with human IL2Rα and IL2Rβ Fc fusion proteins at a final concentration of 2 ug/mL in 1×PBS in total volume of 25 uL per well. The plate was incubated overnight at 4 C and blocked with 80 uL of superblock per well for 1 hour. […] Each dilution was added to IL2Rα or IL2Rβ wells in parallel in duplicates. The IL2 mutant binding was detected by adding 25 uL of anti-Flag HRP diluted at 1:5000 in 1×PBST. In between each step, the plate was washed three times with 1×PBST using a plate washer. The plate was then developed with 25 uL of TMB substrate for five minutes and stopped by adding 25 ul of 2N sulfuric acid. The plate was read at OD450 nm Biotek plate reader and the EC50 was analyzed with Prism 8.1 software to generate EC50 values (FIG. 15A for IL2Rα, and FIG. 15B for IL2Rβ, summarized in Table 9).

B9 and B10 are within 1.5-fold of each other in EC50: 5.7 nM for the first, 4.7 nM for the second.

For B11, the EC50 was 1.3 nM.

target: T2, human IL2Rα Fc fusion protein; assay: ELISA, receptor-Fc coated, anti-Flag HRP
Experimental: as §2

B9 and B10 are within 1.5-fold of each other in EC50: 8.7 nM for the first, 8.3 nM for the second.

B11 showed an EC50 of 4.9 nM.

target: T3, human IL2Rβ (human, UniProt P14784 27-239); assay: SPR, IL2Rβ captured on Protein A chip
T3 construct: also called IL2β; CD122
T3 sequence (looked up): T1 sequence (looked up)
Experimental: The assay was run with Biacore T200 control software version 2.0. For each cycle, 1 ug/mL of human IL2Rβ was captured for 60 seconds at flow rate of 10 uL/min on flow cell 2 in 1×HBSP buffer on Protein A sensor chip. 100 nM of HIS and Flag tag purified each IL2 mutant was 2-fold serial diluted and injected onto both reference flow cell 1 and IL2Rβ captured flow cell 2 for 150 seconds at flow rate of 30 uL/min followed by washing for 300 seconds. The flow cells were then regenerated with Glycine pH2 for 60 seconds at a flow rate of 30 uL/min. The assay was set up with 8 serial diluted concentration points in 96-well format. The kinetics data was analyzed with Biacore T200 evaluation software 3.0. The specific binding response unit was derived from subtraction of binding to reference flow cell 1 from target flow cell 2 (FIGS. 16A-16F, Table 10).

B9 and B10 are within 1.5-fold of each other in Kd: 7.16 nM for the first, 7.23 nM for the second.

B11 was tested, and the Kd was 2.79 nM.

B9 and B10 are within 1.5-fold of each other in koff: 0.0241 s⁻¹ for the first, 0.0304 s⁻¹ for the second.

In the case of B11, the koff is reported as 0.0191 s⁻¹.

B9 and B10 are within 1.5-fold of each other in kon: 3.36e+06 M⁻¹ s⁻¹ for the first, 4.2e+06 M⁻¹ s⁻¹ for the second.

In the case of B11, the kon is reported as 6.84e+06 M⁻¹ s⁻¹.

target: T4, human IL2Rα (human, UniProt P01589 22-213, limits assumed); assay: ELISA, receptor coated, anti-human Fc HRP
T4 construct: also called IL2α; CD25
T4 sequence (looked up): T2 sequence (looked up)
Experimental: (§3) For bivalent Fc-fusion proteins, human IL2Rα, and human IL2Rβ were each immobilized in a 384 well plate at final concentration of 2 μg/mL in 1×PBS in total volume of 25 μL per well. The plate was incubated overnight at 4° C. followed by blocking with 80 μL of superblock per well for 1 hour. The purified engineered IL2 mutant Fc fusion protein at 100 nM was 3-fold serial diluted 12 times. Each dilution was added to IL2Rα and IL2Rβ wells in parallel. The engineered IL2 mutant binding was detected by adding 50 μL of anti-human Fc HRP diluted at 1:5000 in 1×PBST. In between each step, the plate was washed 3 times with 1×PBST in a plate washer. The plate was then developed with 25 μl of TMB substrate for 5 mins and stopped by adding 25 μl of 2N sulfuric acid. The plate was read at OD450 nm Biotek plate reader and the EC50 was analyzed with Prism 8.1 software.

First: B12
Second: B13
The EC50 of the first is 23-fold higher: 0.64 nM for the first, 0.028 nM for the second. The second is the more potent here.

B14 and B15 are within 1.5-fold of each other in EC50: 0.041 nM for the first, 0.046 nM for the second.

Going from B16 to B17, the EC50 rises from 0.041 nM to 0.087 nM (2.1-fold). The first is the more potent here.

Going from B12 to B13, the “relative activity IL2Rα (EC50: fold) against EP085” value rises from -12.7 fold to 1.78 fold.

First: B14
Second: B15
The “relative activity IL2Rα (EC50: fold) against EP085” value of the first is higher: 1.24 fold for the first, 1.09 fold for the second.

First: B16
Second: B17
The “relative activity IL2Rα (EC50: fold) against EP085” value of the first is higher: 1.23 fold for the first, -1.73 fold for the second.

target: T3, human IL2Rβ; assay: ELISA, receptor coated, anti-human Fc HRP
Experimental: as §3

First: B12
Second: B13
The EC50 of the first is 1.6-fold higher: 0.41 nM for the first, 0.25 nM for the second.

First: B14
Second: B15
The EC50 of the first is 7.5-fold higher: 2.1 nM for the first, 0.28 nM for the second.

First: B16
Second: B17
The EC50 of the first is 13-fold higher: 2.6 nM for the first, 0.2 nM for the second. The second is the more potent here.

Compared with B12, B13 is higher in “relative activity IL2Rβ (EC50: fold) against EP085” value: 727 fold for the first, 1190 fold for the second.

Compared with B14, B15 is higher in “relative activity IL2Rβ (EC50: fold) against EP085” value: 142 fold for the first, 1080 fold for the second.

First: B16
Second: B17
The “relative activity IL2Rβ (EC50: fold) against EP085” value of the first is lower: 117 fold for the first, 1530 fold for the second.
